Here are results for twelve molecules from patent publication US20180185504A1 (Regeneron, published 2018).

In experiment [1] the target is T1, monkey macaca fascicularis PRLR construct with an HA tag on HEK293/mfPRLR cells (macaca fascicularis, UniProt A0A2K5WXK1 25-619).
T1 construct: stably transfected into HEK293
T1 sequence: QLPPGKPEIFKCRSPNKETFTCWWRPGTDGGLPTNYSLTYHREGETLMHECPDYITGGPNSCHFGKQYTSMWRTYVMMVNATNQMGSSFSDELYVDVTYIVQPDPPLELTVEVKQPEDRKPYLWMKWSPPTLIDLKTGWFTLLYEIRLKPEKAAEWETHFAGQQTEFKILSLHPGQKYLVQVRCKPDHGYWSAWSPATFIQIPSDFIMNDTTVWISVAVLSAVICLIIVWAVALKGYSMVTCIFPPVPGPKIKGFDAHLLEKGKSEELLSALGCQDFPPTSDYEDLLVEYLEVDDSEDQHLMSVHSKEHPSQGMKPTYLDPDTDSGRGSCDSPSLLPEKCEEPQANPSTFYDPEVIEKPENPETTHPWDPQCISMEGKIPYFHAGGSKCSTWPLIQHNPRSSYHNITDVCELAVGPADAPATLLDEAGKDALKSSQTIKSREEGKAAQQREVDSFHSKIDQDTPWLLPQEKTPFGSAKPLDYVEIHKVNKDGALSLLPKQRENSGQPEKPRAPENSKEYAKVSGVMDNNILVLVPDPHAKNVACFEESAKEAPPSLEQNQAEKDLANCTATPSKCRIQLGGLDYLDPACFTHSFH
Kind of experiment: FACS on HEK293/mfPRLR cells.

The target in experiment [2] is T2, human PRLR construct with an HA tag on HEK293/hPRLR cells (human, UniProt P16471 25-622).
T2 sequence: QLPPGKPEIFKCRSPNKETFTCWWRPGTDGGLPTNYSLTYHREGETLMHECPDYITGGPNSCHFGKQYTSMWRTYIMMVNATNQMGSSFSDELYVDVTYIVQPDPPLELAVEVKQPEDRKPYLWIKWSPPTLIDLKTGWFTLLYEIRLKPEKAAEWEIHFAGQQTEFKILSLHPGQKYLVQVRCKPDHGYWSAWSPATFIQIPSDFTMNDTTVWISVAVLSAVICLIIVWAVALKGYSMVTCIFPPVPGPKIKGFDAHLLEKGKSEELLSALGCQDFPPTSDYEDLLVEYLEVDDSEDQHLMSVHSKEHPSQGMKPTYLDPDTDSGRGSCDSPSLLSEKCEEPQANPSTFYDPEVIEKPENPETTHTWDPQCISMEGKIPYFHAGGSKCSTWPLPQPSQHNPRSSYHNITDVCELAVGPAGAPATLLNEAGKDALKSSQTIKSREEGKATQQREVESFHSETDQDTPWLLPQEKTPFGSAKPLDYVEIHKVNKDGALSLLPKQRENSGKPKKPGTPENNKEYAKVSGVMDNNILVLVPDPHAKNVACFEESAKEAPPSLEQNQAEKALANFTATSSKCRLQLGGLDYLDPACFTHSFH
Kind of experiment: FACS on HEK293/hPRLR cells.

The target in experiment [3] is T3, mouse PRLR construct with an HA tag on HEK293/mPRLR cells (mouse, UniProt Q08501 20-608).
T3 construct: whole, on cells; stably transfected into HEK293
T3 sequence (looked up): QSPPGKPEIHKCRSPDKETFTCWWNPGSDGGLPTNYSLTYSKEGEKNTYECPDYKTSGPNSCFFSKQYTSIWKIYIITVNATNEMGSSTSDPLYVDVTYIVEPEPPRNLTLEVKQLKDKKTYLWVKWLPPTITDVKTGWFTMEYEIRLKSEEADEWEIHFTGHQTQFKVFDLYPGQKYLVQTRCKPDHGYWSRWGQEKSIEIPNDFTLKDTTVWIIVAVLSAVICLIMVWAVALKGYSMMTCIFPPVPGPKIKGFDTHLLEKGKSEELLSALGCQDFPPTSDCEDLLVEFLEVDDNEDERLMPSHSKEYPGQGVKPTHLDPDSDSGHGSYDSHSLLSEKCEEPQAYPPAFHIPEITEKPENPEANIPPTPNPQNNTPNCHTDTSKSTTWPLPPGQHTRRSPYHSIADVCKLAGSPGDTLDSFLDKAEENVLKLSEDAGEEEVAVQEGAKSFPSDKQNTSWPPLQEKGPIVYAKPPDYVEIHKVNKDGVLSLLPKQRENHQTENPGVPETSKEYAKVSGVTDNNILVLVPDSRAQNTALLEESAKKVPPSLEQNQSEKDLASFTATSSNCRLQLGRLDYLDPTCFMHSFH
Kind of experiment: FACS on HEK293/mPRLR cells.

B1: H1H6792P (antibody, human IgG1, V domains shown)
VH: EVQLVESGGGLVQPGRSLRLSCAASGFTLDDHAVHWVRQAPGKGLEWVSGISWNSVYIDYADSVKGRFTIFRDNAKNSLYLQMNSLRAEDTAFYYCARDIEGARDYWGQGTLVTVSS
VL: DIQMTQSPSSLSASVGDRVTITCRASQGIRNDLGWYQQKPGKAPKRLIYAASSLQSGVPSRFSGSGYGTEFTLTISSLQPEDFAPYYCLQHNSYPLTFGGGTKVEIK
notes: human IgG1 Fc (H1H)
Consider B1, for which the “FACS Cell Binding (Fold Above Background)” value turned out to be 28 fold in experiment [1], 37 fold in experiment [2] and 3 fold in experiment [3].

B2: H1H6804P (antibody, human IgG1, V domains shown)
VH: QVTLKESGPVLVKPTQTLSLTCTVSGFSLSDAGMGVSWIRQPPGKALEWLAHIFSNDGKSYSTSLKSRLTISKDTSKRQVVLTMTNMDPVDTATYYCARIRTGTYSLYLDYWGQGTLVTVSS
VL: DIQMTQSPSSLSASVGDRVTITCRASQSINSYLNWYQQKPGKAPKLLLYFASSLQSGVPSRFSGSGSGTDFTLTISSLQPEDFASYYCQESYSTPWTFGQGTKVEIK
notes: human IgG1 Fc (H1H)
As to B2, the “FACS Cell Binding (Fold Above Background)” value in experiment [1] was found to be 29 fold; in experiment [2] it was 1 fold; in experiment [3], 1 fold.

B3: H1H6960N (antibody, human IgG1, V domains shown)
VH: EVQLVESGGGLVKPGGSLRLSCAASGITFSSYSMNWVRQAPGKGLEWVSSISTRSSLIHYADSVKGRFTISRDNAKNSLYLQMNSLRDEDTAVYYCARWDAAAAFDYWGQGTLVIVSS
VL: DIQLTQSPSFLSASVGDRVTITCWASQGISSYLAWYQQKPGKAPKLLIYVASTLQSGVPSRFSGSGSGTEFTLTISSLQPEDFATYFCQQLNSYPLTFGGGTKVEIK
notes: also called H2M6960N
On to B3, for which the “FACS Cell Binding (Fold Above Background)” value in experiment [1] stood at 23 fold; in experiment [2] it was 29 fold; in experiment [3] it was 1 fold.

B4: H1H6790P (antibody, human IgG1, V domains shown)
VH: EVQLVESGGGLVQPGGSLRLSCAASGFTFSSYAMTWVRQAPGKGLEWVSAITGSVGNTYYADSVKGRFTISRDNSKNTLYLQMNSLGAEDTAEYYCAKGAGMTTNWYLDLWGRGTLVTVSS
VL: DIVMTQSPDSLAVSLGARATINCKSSQSVLYSSNNQNYLTWYQQKPGQPPKLLIKWASTRESGVPDRFSGSGSGTDFTLTISSLQAEDVAVYYCQQYASSPYTFGQGTKLEIK
notes: human IgG1 Fc (H1H)
B4: the “FACS Cell Binding (Fold Above Background)” value is 24 fold in experiment [1], 37 fold in experiment [2] and 1 fold in experiment [3].

B5: H1H6953N (antibody, human IgG1, V domains shown)
VH: EVQLLESGGGLVQPGGTLRLSCAASGFTFSAYAMSWVRQAPGKGLEWVSSINVRAGDTYYADSVKGRFTISRDNSKNTLFLLMNSLRAEDTAAYYCAKARYSSNWGFDFWGQGTLVTVSS
VL: DIVMTQSPDSLTVSLGARTTINCQSSQTILHSSNNHNYLAWYQQKPGLPPKLLIYWSSTRESGVPDRFSGSGSGTDFTLTISSLQAEDVAIYYCQQYSNTPYTFGQGTKLEIN
notes: also called H1M6953N
For B5, the “FACS Cell Binding (Fold Above Background)” value stood at 29 fold in experiment [1], 37 fold in experiment [2] and 2 fold in experiment [3].

B6: H1H6795P (antibody, human IgG1, V domains shown)
VH: QVQLVQSGAEVKKPGASVKVSCKASGYTFGTSGITWVRQAPGQGLEWMGWSSAYNGKTDYAQKFQDRVTMTTDTSTTTGYMEMRSLTSDDTAVYYCTTVVRRPFDFWGQGTLVTVSS
VL: DIQMTQSPSSLSASVGDRVTITCRASQDINNFLAWFQQKPGKAPKSLIYAASSLQSGVPSKFSGGGSGTDFALTISSLQPEDFATYYCQQYSSYPITFGQGTRLEIK
notes: human IgG1 Fc (H1H)
With B6, the “FACS Cell Binding (Fold Above Background)” value in experiment [1] came to 22 fold; in experiment [2] it was 1 fold; in experiment [3], 1 fold.

B7: H1H6959N2 (antibody, human IgG1, V domains shown)
VH: EVQLVESGGGLVQPGRSLRLSCAASGFTFDDYAMHWVRQAPGKGLEWVSGISWHSGIIGYADSVKGRFTISRDNAKNSLYLQMNSLRTEDAALYYCAKIGSYFYFDSWGQGTLVTVSS
VL: EIVLTQSPGTLSLSPGERATLSCRASQSVSSNYLAWYQQKPGQAPRLLIYGASSRATGIPDRFSGSGSGTDFTLTISRLEPEDFAVYYCQQFGSSGYTFGQGTNLEIK
notes: also called H2M6959N2
Take B7: the results for the “FACS Cell Binding (Fold Above Background)” value in experiment [1], in experiment [2] and in experiment [3] were 11 fold, 6 fold and 2 fold, respectively.

B8: H1H6783P (antibody, human IgG1, V domains shown)
VH: QVQLQQSGPGLVKPSQTLSLTCAISGDSVSSNTFAWNWIRQSPSRGLEWLGRTYYRSKWYIDYAESVKSRITITPDTSKNQFSLQLNSVTPEDTALYYCAGGYTYAPRGAFDIWGQGTMVTVSS
VL: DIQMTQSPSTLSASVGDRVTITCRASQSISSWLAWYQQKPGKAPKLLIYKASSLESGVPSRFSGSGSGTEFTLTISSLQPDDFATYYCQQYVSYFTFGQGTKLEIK
notes: human IgG1 Fc (H1H)
As to B8, the “FACS Cell Binding (Fold Above Background)” value in experiment [1] was determined as 27 fold; in experiment [2], 37 fold; in experiment [3], 1 fold.

B9: H1H6774P (antibody, human IgG1, V domains shown)
VH: EVQLVESGGGLAQPGGSLRLSCVASGFTFSTYWMSWVRQAPGKGLDWVGNIKQDGSEQNYVDSVRGRFTISRDNAKNSLFLQMNSLRAEDTGVYYCATLLTKGDYWGQGTLVTVSS
VL: DIQMTQSPSSLSASVGDSVTITCRASQDISNYLDWFQQKPGKAPKSLIYAASILQGGVPSRFSGSGYGTDFTLTISSLQPEDFATYYCRQYKTYPFTFGPGTKVDIK
notes: human IgG1 Fc (H1H)
As for B9, the “FACS Cell Binding (Fold Above Background)” value in experiment [1] stood at 29 fold; in experiment [2], 1 fold; in experiment [3] it was 1 fold.

B10: H1H6797P (antibody, human IgG1, V domains shown)
VH: EVQLVESGGGLVQPGGSLRLSCIVSGFTFSGSWMSWVRQLPGKGLEWVANIKEDGSDSYYVDSVEGRFTISRDNAKSSLYLQMNSLRVDDTAVYFCARARTVPLHYWGQGTLVTVSS
VL: DIQMTQSPSTLSASVGDRVTITCRASQSINIWLAWYQQKPGKAPKLLIYRASYLESGVPSSFAGGGSGTEFTLTISSLQPDDFGTYYCQHYNSYPFTFGQGTKLEIK
notes: human IgG1 Fc (H1H)
For the molecule B10, the “FACS Cell Binding (Fold Above Background)” value in experiment [1] is 25 fold; in experiment [2], 1 fold; in experiment [3] it was 2 fold.

B11: H1H6807P (antibody, V domains shown)
VH: QVQLVESGGGVVQPGRSLRLSCAASGFTFSDYNMHWVRQAPGKGLEWVAVIWYDGSNKHYADSVKGRFTISRDNSKNTLYLQMNSLRAEDTAVYYCARDGFTIFGMVLDYWGQGTLVTVSS
VL: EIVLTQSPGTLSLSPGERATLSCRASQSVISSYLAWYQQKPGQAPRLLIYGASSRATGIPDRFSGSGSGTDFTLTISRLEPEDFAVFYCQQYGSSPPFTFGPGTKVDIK
notes: human IgG1 Fc (H1H)
Turning to B11, the “FACS Cell Binding (Fold Above Background)” value is 27 fold in experiment [1], 32 fold in experiment [2] and 2 fold in experiment [3].

B12: H1H6966N (antibody, human IgG1, V domains shown)
VH: QVQLVQSGAEVQKPGASVKVSCKVSGYTLTALSIHWVRQAPGKGLEWMGNFDPGDGETIHAQKFQGRVTMTGDTSTDTAYMELSSLRSEDTAVYYCVGVTFDYWGQGTLVTVSS
VL: EIVMTQSPATLSVSPGERATLSCRASQSVASNLAWYQQKPGQAPRLLLYGASTRATGIPARFSGSGSGTEFTLTISSLQSEDFALYYCQHYNNWPLTFGGGTKVEIK
notes: also called H2M6966N
Turning to B12, the “FACS Cell Binding (Fold Above Background)” value in experiment [1] amounted to 18 fold; in experiment [2], 29 fold; in experiment [3], 1 fold.
